Reference: US20240218054A1 (MABLOC, published 2024)
Changes are numbered by the printed parent chain.

B1: ADI-42831 (antibody, V domains shown)
VH: EVQLVESGGGLVQPGGSLRLSCAASGFTFINYAMTWVRQAPGKGLEWVSAISGNGDGTYYADSVKGRFTLSRDNAKNTIYLHMSALRDEDTALYYCAKDQGVTTDWPSDYWGQGTLVTVSS
VL: DIRLTQSPSTLSASVGDRVTVTCRASQNINTYLAWYQQIPGKAPRLLIYRASTLESGVPSRFSGSGSGTEFTLTINSLQPDDYATYYCQHYETYSVRFGQGTKVEIK
notes: full-length IgG; also called Antibody Number 46
B2: ADI-42230 (antibody, V domains shown)
VH: QVQLVESGGGVVQPGRSLRLSCAASGFTFSSYAMHWVRQAPGKGLEWVAVISHDGSNKYYADSVKGRFTISRDNSKNTLYLQINSLRAEDTAVYYCPRDGLPGANQYFFYYGMDVWGQGTTVTVSS
VL: DIQVTQSPSSLSASVGDRVTITCRASQGISNYLAWYQQKPGKVPKLLIFAASTLRSGVPSRFRGSGSGTDFTLTISSLQPEDVATYYCQKYNSAPLTFGGGTKVEIK
notes: full-length IgG; also called Antibody Number 47
B3: ADI-42847 (antibody, V domains shown)
VH: EVQLLESGPRLVKPSETLSLTCTVSGGSVRGGSHYWSWIRQPPGKGLEWIGYVYDSGSTNYNPSLKSRVSISVDMSKKQFSLKLRSVTAADTAVYHCVRVEEYVNNEEVRDYWGQGTMVTVSS
VL: DIVMTQTPATLSLSPGERATLSCRASQSVSSYLAWYQQKPGQAPRLLIYGASNRATGIPARFSGSGSGTDFTLTISSLEPEDFAVYYCLQRTNWPFTFGPGTKVEIK
notes: full-length IgG; also called Antibody Number 48
B4: ADI-42821 (antibody, V domains shown)
VH: EVQLLESGGGLVPPGGSLRLSCAASGFTFSNYAMSWVRQAPGKGLEWVSAISGSGDSTYYADSVKGRFTLSRDTSKKMVYLHMSNLRDDDTAVYYCARDQGFTTDWPCDYWGQGTLVTVSS
VL: B1 VL with R3V, T53S, N76S, Y83F, E92N, T93S, Y94F, R97K
notes: full-length IgG; also called Antibody Number 49
B5: ADI-45097 (antibody, V domains shown)
VH: EVQLVESGGGVVQPGRSLRLSCAASGFTFNSHGMHWVRQAPGKGLEWVAVISYDGTKKYFADSVKGRFTISRDNSKNTLYLQMSSLRADDTAVYYCAKDSSTSWYQVVYHIDYWGQGTLVTVSS
VL: QSVVTQPPSVSAAPGQKVTISCSGSSSNIGNNYVAWYQQLPGRAPKLLIHDNKKRPSGIPDRFSGSASGTSATLGITGLQTGDEADYYCETWDSSLNAVVFGGGTKLTVL
notes: full-length IgG; also called Antibody Number 5
B6: ADI-42849 (antibody, V domains shown)
VH: QVQLVESGGGLVKPGGSLRLSCAASGFTFSDYYMSWIRQAPGKGLEWVSYITSSGNTMYYADSVKGRFTISRDNAKNSLYLQMNSLRAEDTAVYYCARDSNFNSNLDYWGQGTLVTVSS
VL: SYELTQPPSVSVAPGQTARITCGGHNVGSKSVHWYQQKPGQAPVLVVYDDSDRPSGIPERFSGSNSGNTATLTISRVEAGDEADYYCQVWDSSSDHPWVFGGGTKVTVL
notes: full-length IgG; also called Antibody Number 50
B7: ADI-46001 (antibody, V domains shown)
VH: EVQLVESGGGLVKPGGSLRLSCAASGFTFSDYYMSWIRQAPGKGLEWVSYISSSGNTIYYADSVKGRFTISRDNAKNSLYLQLNSLRAGDTAVYYCARDSNYFYGLDVWGQGTTVTVSS
VL: QPVLTQPPSVSVAPGQTARITCGGNNIGSKSVHWYQQKPGQAPMLVIYSNSDRPSGIPERFSGSNSGITATLTISRVEAGDEADYHCQVWDTSIDHHWVFGGGTKLTVL
notes: full-length IgG; also called Antibody Number 52
B8: ADI-45154 (antibody, V domains shown)
VH: EVQLVESGGGVVQPGRSLRLSCAASGFTFSNYGMHWVRQAPGKGLEWVAVISYDGSNKYYADSVKGRFTISRDDSKNTLYLQVNSLRAEDTAVYYCAKDICSGDCGGGDYWGQGTLVTVSS
VL: QSVLIQPPSASGSPGQSVTISCTGTSSDVGGYNYVSWYQQHPGKAPKLMIYEVSKRPSGVPDRFSGSKSGNTASLTVSGLQAEDGADYYCSSYAGSNNWVVFGGGTKLTVL
notes: full-length IgG; also called Antibody Number 53
B9: ADI-49161 (antibody, V domains shown)
VH: QVQLVQSGAEVKKPGASVKVSCKASGYTFNTYAMTWVRQAPGQGLEWMGWISTYNGNTVFGQKFQGRVTLSTDTSTSTAYMELRSLTSDDTAVYYCAREDDDYYSMDVWGQGTTVTVSS
VL: QPVLTQPASVSGSPGQSITISCTGTSTDVGGYNYVSWYQQYPGKAPKLIIYDVTNRPSGVSHRFSGSKSGNTASLTISGLQAEDEADYYCSSYTTTSLVIFGGGTKLTVL
notes: full-length IgG; also called Antibody Number 54
B10: ADI-42154 (antibody, V domains shown)
VH: EVQLVQSGGGLVQPGGSLRLSCAASGFTFSTYWMSWVRQAPGKGLEWVANIKQDGSEKYYVDSVKGRFTISRDNAKNSLYLQMNSLRAEDTAVYYCARDISCISTSCYGGYYYYGMDVWGQGTTVTVSS
VL: not shown
notes: full-length IgG; also called Antibody Number 55
B11: ADI-48916 (antibody, V domains shown)
VH: EVQLVESGGGVVQPGRSLRLSCAASGFTFSNSGMHWVRQAPGKGLEWVAVIWYDSRNQNYADSVKGRFTISRDNSKNTLFLQMNSLRAEDTAVYYCARDYYASGDGSIDYWGQGTLVTVSS
VL: DIQVTQSPSSLSASVGGRVTITCRASQGIRNDLGWYQRKPGKAPKRLIYAASSLQSGVPSRFSGSGSGTEFTLTISSLQPEDFATYYCLQHNSYPLTFGGGTKVDIK
notes: full-length IgG; also called Antibody Number 56
B12: ADI-45085 (antibody, V domains shown)
VH: EVQLVESGGGLVQPGGSLRLSCAASGFTFSSYAMSWVRQAPGKGLEWVSTFSGRGGSTYYADFVKGRFTISRDNSKNTLYLQMNSLRAEDTAVYYCAKYYDSSGYYYFDYWGQGTLVTVSS
VL: DIQLTQSPSTLSASVGDRVTITCRASQSISTWLAWYQQKPGKAPKLLIYRASSLESGVPSRFSASGSGTEFTLSISSLQPDDFATYYCKQYNRNPYTFGQGTKVEIK
notes: full-length IgG; also called Antibody Number 57
B13: ADI-42211 (antibody, V domains shown)
VH: QVQLVESGGGVVQPGRSLRLSCGGSGFTFSSYGMHWVRQAPGKGLEWVAVISYDGSKKYSADSVKGRFTISRDNSKNTLYLQMNSLRAEDTAVYYCAKGSVSVAGAEDYWGQGTLVTVSS
VL: B2 VL with V4M, N31S, Y36F, F49Y, R55Q, R63S, L96Q, G100Q, E105D
notes: full-length IgG; also called Antibody Number 58
B14: ADI-48908 (antibody, V domains shown)
VH: EVQLLESGGGLVQPGRSLRLSCAVSGFTFAEYAMHWVRQAPGKGLEWVSSISWNSGRIGYVDSVRGRFTISRDNAKNSLYLQMNSLRVEDTAFYYCAKGYDSSGYYWADYWGQGTLVTVSS
VL: EIVMTQSPATLSVSPGERATLSCRASQSVSFNLAWYQQKPGQAPRLLISRASTRAAGVPARFSGSGSGTEFTLTISSLQSEDFAVYYCQQYNNWPPLTFGGGTKLEIK
notes: full-length IgG; also called Antibody Number 59
B15: ADI-49133 (antibody, V domains shown)
VH: EVQLLESGGGLVQPGGSLRLSCAASGFTFRNYAMNWVRQTPGKGLEWVSGISGGGDSTNYADSVKGRFTISRDNSRNTLYLQLNSLRAEDTAVYYCAKDLAVSTPRYWFDSWGQGTLVTVSS
VL: DIQMTQSPSSLSASVGDRVTITCRASQTISVDLNWYQHKPGKAPKLLIFAASTLQSGVPSRFSGSGSGTDFTLTIRSLQPEDFATYYCQQSYSIPRITFGQGTRLEIK
notes: full-length IgG; also called Antibody Number 6
B16: ADI-48913 (antibody, V domains shown)
VH: EVQLLESGPGLVKPSETLSLTCTVSGGSISSYYWSWIRQPAGKGLELIGRIYTSGSGNYNPSLKRRVTMSVDTSKNQISLRLNSVTAADTAVYYCARERGGYFTEPFDIWGQGTMVTVSS
VL: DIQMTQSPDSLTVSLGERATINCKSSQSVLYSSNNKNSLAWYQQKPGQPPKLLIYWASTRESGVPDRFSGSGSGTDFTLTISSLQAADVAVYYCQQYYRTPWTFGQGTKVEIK
notes: full-length IgG; also called Antibody Number 60
B17: ADI-45140 (antibody, V domains shown)
VH: EVQLLESGGGLVHPGGSLRLSCAASGFTFSDYEMNWVRQAPGKGLEWVSHISSSGNIIYYADSVKGRFTISRDNAKDSLYLQMNSLRAEDTAVYYCAATIFGVVSFDYWGQGTLVTVSS
VL: QSVLTQPPSVSAAPGQKVTISCSGSSSNIGNNYVSWYQQLPGTAPKVLIYDNNKRPSGIPDRFSGSKSGTSATLGITGLQTGDEADYYCGTWDSALGAAVFGGGTKLTVL
notes: full-length IgG; also called Antibody Number 61
B18: ADI-50211 (antibody, V domains shown)
VH: EVQLVESGGGLVQPGGSLRLSCAASGFTFSAYAMSWVRQAPGRGLEWVSAISGSDRRIYYADSVKGRFSISRDNSKNTLYLQMSSLRAEDTAVYYCAKYYDSSGYYYLDYWGQGTLVTVSS
VL: B12 VL with I29V, T31S, K45R, A64G, S74T, T85A, K89Q, N94D
notes: full-length IgG; also called Antibody Number 62
B19: ADI-42199 (antibody, V domains shown)
VH: EVQLVESGGGLVQPGGSLRLSCAASGFTFSDHYMAWVRQAPGKGLEWVGRIRNKPNSYTTEYAASVKGRFTISRHDSENSLYLQMNSLKTEDTAVYYCCRESGEGFDPWGQGTLVTVSS
VL: SYELTQLPSVSVSPGQTARVTCSGDALQYVYWYQQKPGQAPVVVIYKDTERPSGIPERFSGSSSGTTVTLTITGVQAEDEADYYCQSADRSGSVIFGGGTKVTVL
notes: full-length IgG; also called Antibody Number 63
B20: ADI-42231 (antibody, V domains shown)
VH: QVQLVQSGAEVKKPGASVKVSCKASGYSFTTYGISWVRQAPGQGLEWMGWISGYSGDTNYAQKVQGRVTMTTDTSTSTAYMELRSLRSDDTAVYYCARDQSHGTFGGVIDSTTLFYYYGMDVWGQGTTVTVSS
VL: DIVMTQSPATLSLSPGERATLSCRASQSVSSYLAWYQQKPGQAPRLLIYDASNRATGIPARFSGSGSGTDFTLTISSLEPEDFAVYYCQQRSNWPSFGQGTKLEIK
notes: full-length IgG; also called Antibody Number 64
B21: ADI-45164 (antibody, V domains shown)
VH: EVQLQESGPGLVKPSETLSLTCTVSGGSISSSSYYWGWIRQPPGKGLEWIGSIYYSGSTYYNPSLKSRVTISVDTSKNQFSLKLSSVTAADTAVYYCARGYCSSTSCFYYYYGMDVWGQGTTVTVSS
VL: not shown
notes: full-length IgG; also called Antibody Number 65
B22: ADI-42233 (antibody, V domains shown)
VH: EVQLVESGGGLVKPGGSLRLSCVASGFTFSRYSMNWVRQAPGKGLEWVSSISHSGRYIYYADSEKGRFTISRDNAKNSLYLQMNSLRAEDTAVYYCARDHYFDSSGDYLSYYYNGMDVWGQGTTVTVSS
VL: ETTLTQSPGTLSLSPGERATLSCRASRSVSGNYLAWYQQKPGQAPRLLIYAASSRATGIPDRFSGGGSGTHFTLTISRLEPEDFAVYYCQQYGSSPRAFGQGTKVEIK
notes: full-length IgG; also called Antibody Number 66
B23: ADI-42191 (antibody, V domains shown)
VH: EVQLVESGGGLVQPGGSLRLSCAASGFTFSDHYMDWVRQAPGKGLEWVGRTRNKPNSHTTEYAASVKGRFTISRDDSKNSLYLQMNSLQTEDTAVYYCARVYGGPDDYWGQGTLVTVSS
VL: EIVMTQSPSSLSASVGDRVTITCRASQSIRSYLNWYQQKPGKAPKLLIYAASSLQSGVPLRFSGSGSGTDFTLTISSLQPEDFATYYCQQSSITPPTFGQGTKLEIK
notes: full-length IgG; also called Antibody Number 67

molecular target: T1, recombinant YFV E protein (soluble E, sE; YFV Asibi strain) (Yellow fever virus, Asibi strain, UniProt Q6DV88 286-678); test: BLI monovalent (IgG on tip)
T1 construct: also called YFV E antigen; YFV E monomer
T1 sequence (Q6DV88 286-678): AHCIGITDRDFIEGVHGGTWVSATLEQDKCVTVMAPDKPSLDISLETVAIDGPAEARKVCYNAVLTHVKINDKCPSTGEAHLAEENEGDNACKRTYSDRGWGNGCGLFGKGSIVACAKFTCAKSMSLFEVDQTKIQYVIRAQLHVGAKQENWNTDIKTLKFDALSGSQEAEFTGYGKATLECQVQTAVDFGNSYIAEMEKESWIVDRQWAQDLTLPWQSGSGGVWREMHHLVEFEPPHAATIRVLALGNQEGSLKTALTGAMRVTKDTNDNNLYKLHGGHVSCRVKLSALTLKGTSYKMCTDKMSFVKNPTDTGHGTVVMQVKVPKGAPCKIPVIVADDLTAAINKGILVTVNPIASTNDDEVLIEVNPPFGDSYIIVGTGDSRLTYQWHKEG

| Binder | Kd [nM] |
| --- | --- |
| B1 | 19.6 |
| B2 | 1.99 |
| B3 | 3.21 |
| B4 | 12.1 |
| B5 | 1.62 |
| B6 | 1.98 |
| B7 | 6.17 |
| B8 | > 100 |
| B9 | 1.81 |
| B10 | 164 |
| B11 | 393 |
| B12 | 152 |
| B13 | 1.64 |
| B14 | 1.76 |
| B15 | 6.91 |
| B16 | 186 |
| B17 | 4.6 |
| B18 | 20.8 |
| B19 | 0.7 |
| B20 | 42.1 |
| B21 | > 100 |
| B22 | 2.98 |
| B23 | 2.13 |
